Source: PMC3702509, “Label Free Fragment Screening Using Surface Plasmon Resonance as a Tool for Fragment Finding – Analyzing Parkin, a Difficult CNS Target” (PLoS ONE, 2013)

B1: Parkin domain R0RBR (residues 141-465) (domain or fragment, human, UniProt O60260-1 141-465, looked up)
chain: SIYNSFYVYCKGPCQRVQPGKLRVQCSTCRQATLTLTQGPSCWDDVLIPNRMSGECQSPHCPGTSAEFFFKCGAHPTSDKETSVALHLIATNSRNITCITCTDVRSPVLVFQCNSRHVICLDCFHLYCVTRLNDRQFVHDPQLGYSLPCVAGCPNSLIKELHHFRILGEEQYNRYQQYGAEECVLQMGGVLCPRPGCGAGLLPEPDQRKVTCEGGNGLGCGFAFCRECKEAYHEGECSAVFEASGTTTQAYRVDERAAEQARWEAASKETIKKTTKPCPRCHVPVEKNGGCMHMKCPQPQCRLEWCWNCGCEWNRVCMGDHWFDV
notes: Parkin residues 141-465 (NM_004562.1), R0, R1, IBR and R2 domains; Cloned into the Champion pET SUMO vector; The Sumo tag was removed with SENP1, and the protein is called untagged in the SPR methods; also called R0RBR Domain; source: E. coli BL21 DE3, purified (Ni sepharose, Mono Q, SENP1 cleavage, Superdex 200)

Key:
Assay in all cases: SPR; untagged R0RBR immobilised by amine coupling (10 mM acetic acid pH 5.0) on a CM5 chip; protein ligands injected; 25°C; 10 mM HEPES pH 7.4, 150 mM NaCl, 0.005% Tween-20, 4 mM reducing agent; 1:1 binding model
Conditions in all cases: both partners purified
[1] = target: B1
[2] = target: T1, UbcH7, E2 ubiquitin conjugating enzyme (UBE2L3 residues 1-154) (human, UniProt P68036-1 1-154)
T1 construct: UBE2L3 (UbcH7) residues 1-154 from NM_003347.2; UbcH7 was also bought from Boston Biochem. TEV cleavage probably leaves SS at the N-terminus (surmised); also called E2 UbcH7; source: E. coli BL21 DE3, purified (nickel sepharose, TEV cleavage, Superdex 200); not shown: His8, N-terminal, cleaved
T1 sequence (P68036 whole entry, the tested form may be a part): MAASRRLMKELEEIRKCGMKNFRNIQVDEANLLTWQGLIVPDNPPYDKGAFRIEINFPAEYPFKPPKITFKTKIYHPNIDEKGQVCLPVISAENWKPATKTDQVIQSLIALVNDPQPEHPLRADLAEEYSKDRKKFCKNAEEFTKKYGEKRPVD

Ubiquitin = target: T2, Ubiquitin (UniProt P0CG47 1-76)
T2 construct: ubiquitin, the cut product of a polyubiquitin or fusion precursor; neither species nor construct is stated; also called Ubq; source: bought: Boston Biochem

Row | Kd [1] | Kd [2] | Kd (Ubiquitin) | Binder
1 | 6 µM | – | – | His-tagged ubiquitin-like domain of Parkin (UblD, residues 1-76) (domain or fragment, human, UniProt O60260-1 1-76, looked up, Parkin residues 1-76 (NM_004562.1), ubiquitin-like domain; also called His-UblD; source: E. coli BL21 DE3, purified (nickel sepharose, dialysed for Biacore); not shown: His6, C-terminal, kept) MIVFVRFNSSHGFPVEVDSDTSIFQLKEVVAKRQGVPADQLRVIFAGKELRNDWTVQNCDLDQQSIVHIVQRPWRK
2 | – | 7.1 µM | 96 µM | B1
